From patent US9056892B2, “Retrograde transport peptide and use of same for delivery to central nervous system” (UNIVERSITY OF WASHINGTON, priority 2011, dated 2015)
No end group written: not given here. *: point of attachment. Biotin = O=C1N[C@H]2[C@H](CS[C@H]2CCCCC(=O)*)N1

B1: Cre: wild-type Cre recombinase, recombinant 6×-his-tagged (protein, UniProt P06956 1-343, looked up)
Recombinase cre: MSNLLTVHQNLPALPVDATSDEVRKNLMDMFRDRQAFSEHTWKMLLSVCRSWAAWCKLNNRKWFPAEPEDVRDYLLYLQARGLAVKTIQQHLGQLNMLHRRSGLPRPSDSNAVSLVMRRIRKENVDAGERAKQALAFERTDFDQVRSLMENSDRCQDIRNLAFLGIAYNTLLRIAEIARIRVKDISRTDGGRMLIHIGRTKTLVSTAGVEKALSLGVTKLVERWISVSGVADDPNNYLFCRVRKNGVAAPSATSQLSTRALEGIFEATHRLIYGAKDDSGQRYLAWSGHSARVGAARDMARAGVSIPEIMQAGGWTNVNIVMNYIRNLDSETGAMVRLLEDGD
modifications: 6xHis tag
notes: wild-type Cre recombinase, recombinant 6×-his-tagged

How the values were obtained:
[1] = Delivery to the CNS after intraperitoneal injection; format: in vivo
Text: The methods described above in Example 1 were modified to explore alternative modes of delivery to intramuscular injection.

[2] = system: neurons in the human spinal cord; assay: Labeling of fresh frozen human spinal cord sections by biotinylated 2404 complexed with quantum dot streptavidin; format: binding; details: overall conclusion
Description: FIGS. 6A-6D. Photomicrographs showing TAxI-Streptavidin labels neurons in the adult human spinal cord. Steptavidin conjugated quantum dots (Qdots) were complexed with biotinylated TAxI peptide and incubated on human spinal cord tissue with anti-NeuN and anti-ChAT antibodies. FIG. 6A. Confocal micrographs of ventral root motor neurons stained immunofluorescently for NueN (prominent cytoplasmic stain) and ChAT (lighter cytoplasmic staining) and TAxI-Qdots (primarily visible in the nuclear region). FIG. 6B. High magnification images of the ventral horn stained by immunofluorescence. FIG. 6C. High magnification images of the dorsal grey matter stained by immunofluorescence. FIG. 6D. Spinal cord tissue pre-blocked with 10-fold excess of TAxI-peptide prior to immunofluorescence for NeuN and ChAT and TAxI-QDots.
The ability to target motor neurons that transport peptide-protein complexes and biologically active proteins into the spinal cord provides tremendous potential for utilizing and delivering novel therapeutics for the CNS. This Example examined whether the 2404-peptide could bind to neural elements within the fresh frozen sections of the human spinal cord. […] 2404-steptavidin labeled cells were not prominent in dorsal aspects of the spinal cord.

[3] = system: spinal cord motor neurons; assay: Cre recombinase delivery into spinal cord after IM injection in Ai14 reporter mice (tdTomato expression); format: in vivo; details: 2.5 μg into gastrocnemius, one week post-injection
Description: To have utility as a therapeutic protein delivery system, the TAxI peptide must traffic cargo without rapid degradation or sequestration. To test for TAxI-mediated delivery of active enzyme to the spinal cord, we generated a series of Cre recombinase chimeras: wild-type Cre (Cre), Cre fused to the TAxI peptide (TAxI-Cre), and Cre fused to a mutated TAxI moiety (TAxI^Q-Cre). After purification, each recombinant Cre protein was injected (2.5 μg) into the gastrocnemius of the Ai14 reporter mice. In these mice, delivery of biologically active Cre recombinase results in td-Tomato expression due the excision of a floxed stop-codon.[27] One week post-injection, confocal microscopy was used to image spinal cords isolated after perfusion fixation. […] Furthermore, td-Tomato^+-cells projected into intermediate lamina of the spinal cord as well as into interneuron polls within multiple longitudinal segments, similar to efferent motor neurons (inset).
The coding sequence for Cre recombinase was obtained from the University of Washington Yeast Resource Center. The TAxI peptide sequence was added to the 5-prime end and both TAxI-Cre and wild-type Cre were subcloned into pRSETb (Invitrogen). To allow for expression and purifaction, each plasmid was transformed into BL21(D3)pLysS and grown in media supplemented with IPTG/X-gal (Promega). […]

Row | Molecule | delivery to the CNS [1] | binding and labeling of neurons in the human spinal cord [2] | tdTomato colocalization with NeuN and ChAT [3] | tdTomato expression in the lumbar spinal cord ([3]; confocal microscopy)
1 | ASGAQAR (GGCASGAQARCGG; disulfide (positions not given here); not fully specified (N-terminus, bridges); also: cyclic, mode not given here) [Clone 2404Q] | robust delivery to the CNS | – | – | –
2 | QSQSQMR (Biotin-SACQSQSQMRCGGG; disulfide (positions not given here); not fully specified (bridges); also: cyclized, mode not given here) [Clone 2404] | robust delivery to the CNS | able to bind and label neurons in the human spinal cord specifically | – | –
3 | TSTAPHLRLRLTSR [Clone 4042] | robust delivery to the CNS | – | – | –
4 | B1 | – | – | did not induce tdTomato expression in either NeuN or ChAT-positive cells | small punctuate tdTomato^+-cells
